In experiment [1] the target is BG505 SOSIP.664 HIV-1 envelope glycoprotein trimer (HIV-1 (BG505, clade A)). As to the kind of experiment: negative-stain electron microscopy; NS-EM imaging of the purified Drug Substance of the three production runs; details in SOM Methods.
The target is the same in experiment [2]. As to the kind of experiment: SEC; purified Drug Substance of the 50 L Confirmation, 200 L Demonstration and 200 L cGMP runs; SEC / SE-HPLC; details in SOM Methods. (SEC sorts molecules by how far they enter the pores of the column.)

The stoichiometry N is a count of units in the complex or per binding partner. Consider “BG505 SOSIP.664 HIV-1 envelope glycoprotein trimer (complex)”, for which the stoichiometry N in experiment [1] and in experiment [2] was 3 each time.

The record behind these values is PMC5852640.
